According to patent US5750365, “Isolated nucleic acid encoding a newt acidic fibroblast growth factor (AFGF)” (The Ohio State University Research Foundation, dated 1998):

Tests used:
bovine brain aFGF = bovine brain aFGF (bovine, UniProt P03968, 125I-labeled); assay: chemical crosslinking (DSS) on CHO-K1 cells over-expressing newt KGFR, SDS-PAGE
Method: (§1) CHO cells transfected with pBJ5 vector (lane 1) or with newt KGFR expression vector (lanes 2–4) were crosslinked with ^125I-aFGF using 0.3 mM disuccinimidyl suberate (DSS). Excess amounts (500-fold) of aFGF (lane 3) or KGF (lane 4) were used to compete with ^125I-aFGF. Crosslinked products were analyzed on a 7.5% SDS-polyacrylamide gel.
(§2) To characterize the newt FGFR cDNA functionally, the newt KGFR were expressed in CHO-K1 cells. The mammalian expression vector, pBJ5, which contains a chimeric promoter derived from HTLV-I and SV40, was used to express the newt KGFR and FGFR2 cDNA. […] The crosslinked product can be successfully competed off with a 500-fold molar excess of cold aFGF or human recombinant KGF as shown in FIG. 11. The crosslinked product is absent in KPTr1-8, the CHO cells that were transfected with the pBJ5 vector alone. The crosslinked product thus appears to be specific. Similarly, a cell line over-expressing the human KGFR (T-1063-29-2 from S. A. Aaronson, NIH) was able to produce a somewhat smaller crosslinked product than the newt KGFR. Antibodies (both monoclonal and polyclonal) directed against a peptide from the carboxyl terminus of the newt FGFR2 are generated.

recombinant human aFGF = recombinant human aFGF (human, UniProt P05230, 125I-labeled); assay: Scatchard plot of 125I-aFGF binding to KPTr2-2 cells (CHO-K1 expressing newt KGFR)
human recombinant KGF = target: T1, human recombinant KGF (human, UniProt P21781); assay: competition of 125I-aFGF crosslinking on KPTr2-2 cells; competitor in 500-fold molar excess
T1 sequence: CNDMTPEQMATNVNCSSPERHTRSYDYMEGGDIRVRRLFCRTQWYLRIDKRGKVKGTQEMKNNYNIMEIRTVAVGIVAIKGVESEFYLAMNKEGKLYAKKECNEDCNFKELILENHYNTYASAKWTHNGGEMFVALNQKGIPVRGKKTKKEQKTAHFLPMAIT
Method: as §1, §2

B1: newt KGFR (KGFR isoform, IIIb, of newt FGFR2; two Ig-like loop variant), expressed on CHO-K1 cells (KPTr2-2) (receptor)
chain: RPSYNIAEDTTLEPEDANSSGDDEDDNDGSEDFTNDNNHMRAPYWTNTEKLEKKLHAVPAANTVKFRCPAGGNPTPSMRWLKNGKEFKQEHRIGGFKVRSQHFSLIMESVVPSDEGNYTCIMENEYGSINHTYHLDVVERSPHRPILQAGLPANTTTKVGGDAEFVCKVYSDAQPHIQWIRHFELNGSKIGPDGHPYLKVLKRSGINSSNAEVLTLHNVTEADRGQYTCKVSNYIGEANQSAWLTVLPASEKDEERELDSSSEYTEIAIYCVGGFLITCMIGTIMVCHMKGRGKKSDFSSPPAVHKLSKSLPLRRQVTVSADSSSSMNSNTPLVRITTRLSSNNDTHLLAGVSEYELPEDPKWEYPREKLTLGKPLGEGCFGQVVMAEAVGIDKDRPKDAATVAVKMLKDDATEKDLSDLVSEMEMMKMIGKHKNIINLLGACTQDGPLYVIVEYASKGNLREYLRTRRPPGMEYSFDINRIPEEQMTFKDLVSCTYQLARGMEYLASQKCIHRDLAARNVLVTETNVMKIADFGLARDINNIDYYKKTTNGRLPVKWMAPEALFDRVYTHQSDVWSFGVLMWEIFTLGGSPYPGIPVEELFKLLKEGHRMDKPGNCTNELYTMMTDCWRAVPSQRPTFKQLVEDLDRILTQTTNEEYLDLNNPLEQYSPSYPDTRSSCSSGDDSVFSPDAMPYDPCLPKSQHTNGTIKT
In the case of B1, the binding result (bovine brain aFGF) is reported as “binds”, the Kd (recombinant human aFGF) is reported as 1.3 nM and the binding result (human recombinant KGF) is reported as “binds”.
